According to article doi:10.64898/2025.12.08.693004 (bioRxiv, 2025):

T1: Human EphB2-His (human, UniProt P29323 19-543)
T1 sequence (looked up): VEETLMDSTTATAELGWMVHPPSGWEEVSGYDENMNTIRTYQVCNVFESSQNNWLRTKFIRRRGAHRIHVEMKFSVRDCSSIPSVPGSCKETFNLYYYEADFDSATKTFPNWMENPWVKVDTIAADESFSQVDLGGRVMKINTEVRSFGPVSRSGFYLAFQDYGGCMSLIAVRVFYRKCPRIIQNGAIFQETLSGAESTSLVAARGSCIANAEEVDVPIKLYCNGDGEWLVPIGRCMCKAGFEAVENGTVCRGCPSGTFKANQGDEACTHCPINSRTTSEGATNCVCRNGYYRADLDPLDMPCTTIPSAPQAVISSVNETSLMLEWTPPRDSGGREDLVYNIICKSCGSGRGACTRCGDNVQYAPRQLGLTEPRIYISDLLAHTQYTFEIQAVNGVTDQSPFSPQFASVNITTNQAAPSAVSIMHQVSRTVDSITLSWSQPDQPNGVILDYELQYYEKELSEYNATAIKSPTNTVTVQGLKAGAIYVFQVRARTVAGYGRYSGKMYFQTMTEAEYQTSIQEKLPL

T2: Human EphB4-His (human, UniProt P54760 16-539)
T2 sequence (looked up): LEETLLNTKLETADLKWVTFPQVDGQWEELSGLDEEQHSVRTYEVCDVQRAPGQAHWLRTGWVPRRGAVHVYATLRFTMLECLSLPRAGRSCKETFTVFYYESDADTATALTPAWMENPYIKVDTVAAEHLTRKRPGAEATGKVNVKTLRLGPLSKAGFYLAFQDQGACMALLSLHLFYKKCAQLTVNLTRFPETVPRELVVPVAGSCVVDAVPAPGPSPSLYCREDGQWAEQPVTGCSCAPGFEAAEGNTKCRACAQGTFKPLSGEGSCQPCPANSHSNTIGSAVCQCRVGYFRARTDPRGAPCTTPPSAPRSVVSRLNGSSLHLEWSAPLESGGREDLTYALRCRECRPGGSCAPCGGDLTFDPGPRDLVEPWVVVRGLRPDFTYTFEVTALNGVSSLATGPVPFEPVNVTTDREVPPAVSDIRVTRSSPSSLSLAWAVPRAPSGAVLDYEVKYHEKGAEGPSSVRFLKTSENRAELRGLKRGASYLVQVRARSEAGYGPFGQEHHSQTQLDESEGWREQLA

T3: Human EphB1-His (human, UniProt P54762 18-540)
T3 sequence (looked up): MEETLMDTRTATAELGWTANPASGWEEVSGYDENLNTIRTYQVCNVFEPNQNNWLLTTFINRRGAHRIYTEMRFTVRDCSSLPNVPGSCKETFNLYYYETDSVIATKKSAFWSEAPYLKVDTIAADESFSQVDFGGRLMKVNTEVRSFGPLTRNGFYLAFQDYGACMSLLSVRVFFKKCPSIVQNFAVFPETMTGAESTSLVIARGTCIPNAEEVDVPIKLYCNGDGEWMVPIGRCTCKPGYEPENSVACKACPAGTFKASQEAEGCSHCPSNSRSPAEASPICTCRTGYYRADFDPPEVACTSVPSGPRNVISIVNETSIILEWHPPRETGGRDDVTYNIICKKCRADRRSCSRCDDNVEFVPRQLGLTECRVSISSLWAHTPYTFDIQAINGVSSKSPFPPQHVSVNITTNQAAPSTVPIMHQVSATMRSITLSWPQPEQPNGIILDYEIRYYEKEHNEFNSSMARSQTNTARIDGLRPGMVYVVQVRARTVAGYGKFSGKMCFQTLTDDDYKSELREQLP

T4: Human EphB3-Fc (human, UniProt P54753 38-550)
T4 sequence (looked up): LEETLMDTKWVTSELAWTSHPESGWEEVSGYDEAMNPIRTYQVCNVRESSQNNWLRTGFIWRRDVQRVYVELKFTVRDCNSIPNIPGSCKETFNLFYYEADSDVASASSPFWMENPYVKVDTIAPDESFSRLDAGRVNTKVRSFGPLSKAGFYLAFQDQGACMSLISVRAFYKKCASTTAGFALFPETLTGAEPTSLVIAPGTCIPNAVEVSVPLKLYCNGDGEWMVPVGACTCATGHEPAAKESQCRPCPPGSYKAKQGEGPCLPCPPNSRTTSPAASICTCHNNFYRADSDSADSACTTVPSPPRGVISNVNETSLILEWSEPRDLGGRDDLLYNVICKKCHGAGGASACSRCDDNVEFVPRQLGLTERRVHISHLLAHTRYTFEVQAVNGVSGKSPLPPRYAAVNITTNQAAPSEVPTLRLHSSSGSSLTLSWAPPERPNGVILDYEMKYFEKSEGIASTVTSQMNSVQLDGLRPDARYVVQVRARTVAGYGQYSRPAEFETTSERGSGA

T5: Rat EphB1-Fc protein (rat, UniProt P09759 18-538)
T5 sequence (looked up): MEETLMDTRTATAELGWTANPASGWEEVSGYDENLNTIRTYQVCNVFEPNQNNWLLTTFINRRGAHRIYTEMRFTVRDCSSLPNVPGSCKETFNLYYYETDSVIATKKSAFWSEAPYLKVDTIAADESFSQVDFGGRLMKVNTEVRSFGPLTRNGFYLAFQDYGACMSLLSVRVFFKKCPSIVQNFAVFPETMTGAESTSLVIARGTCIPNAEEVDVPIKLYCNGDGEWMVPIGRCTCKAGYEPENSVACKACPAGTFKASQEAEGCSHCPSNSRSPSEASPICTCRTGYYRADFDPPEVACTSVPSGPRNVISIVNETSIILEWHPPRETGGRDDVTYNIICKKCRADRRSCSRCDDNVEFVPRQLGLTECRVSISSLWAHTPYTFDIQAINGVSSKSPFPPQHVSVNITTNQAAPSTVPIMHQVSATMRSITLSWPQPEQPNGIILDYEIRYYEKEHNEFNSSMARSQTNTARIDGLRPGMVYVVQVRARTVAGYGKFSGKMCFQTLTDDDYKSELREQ


Key:
Assay in all cases: BLI
Human EphB2-His = target: T1, Human EphB2-His
Human EphB4-His = target: T2, Human EphB4-His
Human EphB1-His = target: T3, Human EphB1-His
Human EphB3-Fc = target: T4, Human EphB3-Fc
Rat EphB1-Fc protein = target: T5, Rat EphB1-Fc protein

| Binder | binding result (Human EphB2-His) | binding result (Human EphB4-His) | binding result (Human EphB1-His) | binding result (Human EphB3-Fc) | binding result (Rat EphB1-Fc protein) |
| --- | --- | --- | --- | --- | --- |
| Human EphrinB2-Fc (Fc fusion, UniProt P52799 28-229, looked up) IVLEPIYWNSSNSKFLPGQGLVLYPQIGDKLDIICPKVDSKTVGQYEYYKVYMVDKDQADRCTIKKENTPLLNCAKPDQDIKFTIKFQEFSPNLWGLEFQKNKDYYIISTSNGSLEGLDNQEGGVCQTRAMKILMKVGQDASSAGSTRNKDPTRRPELEAGTNGRSSTTSPFVKPNPGSSTDGNSAGHSGNNILGSEVALFA | binds | binds | binds |  |  |
| Mouse EphrinB2-His protein (ligand, UniProt P52800 29-232, looked up) RSIVLEPIYWNSSNSKFLPGQGLVLYPQIGDKLDIICPKVDSKTVGQYEYYKVYMVDKDQADRCTIKKENTPLLNCARPDQDVKFTIKFQEFSPNLWGLEFQKNKDYYIISTSNGSLEGLDNQEGGVCQTRAMKILMKVGQDASSAGSARNHGPTRRPELEAGTNGRSSTTSPFVKPNPGSSTDGNSAGHSGNNLLGSEVALFA |  |  |  | binds | binds |
